Assay results reported in patent publication US20200369754A1 (Janssen / Centocor, published 2020).
Numbering of substitutions follows the chain as printed. In names and notes the source's numbering stands. Blank lines part the entries; values can stand above or below the binder they belong to.

Legend:
[1] = target: T1, Aggregated recombinant 2N4R tau (rTau) (human, UniProt P10636 2-758, covalently labelled with pHrodo Green STP Ester); test: uptake of pHrodo-labelled rTau immunocomplexes by BV2 cells, flow cytometry
T1 construct: Full-length huTau441 expressed in E. coli, in aggregated form; also called rTau aggregates; tau aggregates
T1 sequence (P10636 other isoform, or with tags, fused parts or gaps limits assumed): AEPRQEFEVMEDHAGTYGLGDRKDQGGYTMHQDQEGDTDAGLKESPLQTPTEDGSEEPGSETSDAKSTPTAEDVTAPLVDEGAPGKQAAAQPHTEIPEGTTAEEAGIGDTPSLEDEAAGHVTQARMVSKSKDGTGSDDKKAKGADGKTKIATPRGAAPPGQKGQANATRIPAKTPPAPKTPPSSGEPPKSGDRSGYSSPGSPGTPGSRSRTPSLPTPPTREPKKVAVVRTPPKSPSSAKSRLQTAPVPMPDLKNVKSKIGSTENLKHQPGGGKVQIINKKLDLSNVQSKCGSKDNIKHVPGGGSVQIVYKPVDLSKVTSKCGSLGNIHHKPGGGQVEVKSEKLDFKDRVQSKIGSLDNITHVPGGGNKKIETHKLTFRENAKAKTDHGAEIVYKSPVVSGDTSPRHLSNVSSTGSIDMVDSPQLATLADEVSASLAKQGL
Method: In each experiment a mouse IgG1 isotype control was included together with cells incubate with only aggregated rTau.
Immunocomplexes were incubated over night at 4° C. and the day after applied to BV2 cells for 2 hours at 37° C. with 5% CO2. After incubation cells were harvested with 0.25% trypsin-EDTA for 20 min thus simultaneously removing Tau bound to the extracellular membrane, centrifuged at 400 rcf to remove medium removed, washed twice with PBS and resuspended in flow cytometry buffer (PBS 1× plus 0.5% BSA and 2 mM EDTA). Cells were analyzed with a Canto II flow cytometer (BD) gating for live single cell population, as identified by forward and side scatter profiles. Each experiment was conducted in duplicate.

[2] = target: T2, Tau peptide A6940 (human, biotin (bound via biotin to a streptavidin biosensor in the Octet assay; position of the biotin not stated)); test: ITC, tau peptide 20 uM titrated with IgG 200 uM, PBS pH 7.4, one set of sites model
T2 construct: Biotinylated in the Octet assay; also called cognate Tau peptide A6940
T2 peptide: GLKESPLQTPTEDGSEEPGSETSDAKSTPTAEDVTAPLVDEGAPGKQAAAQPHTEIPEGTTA
Method: Affinities of the novel antibodies were determined using a Microcal Auto-iTC200 isothermal titration calorimeter (Malvern). […] Data was fitted according to a one set of sites model using Microcal PEAQ-ITC Analysis Software (Malvern).
The continuous lines represent the fit of the data to a “one set of binding sites” model.

- binding result [1]: binds
B3: CBTAU-28.1 (S32R[VL];E35K[VL]) (antibody, V domains shown)
VH: QVQLQQSGAEVKKPGESLKISCEASGYSFTNYWIGWVRQMPGKGLEWMGIIYPGDSDTRYSPPFQGQVTITADRSITTAYLEWSSLKASDTAMYYCARVGRPSKGGWFDPWGQGTLVTVSS
VL: DIQMTQSPDSLAVSLGERATINCESSQTLLYRSNKKNYLAWYQQKPGQPPKLLISWASTPESGVPDRFSGSGSGTSFTLTISSLQAEDVAVYYCQQYYNSPYTFGQGTRLEIK

- binding result [1]: binds
- Kd [2]: 45 nM
B4: CBTAU-28.1 (I50M[VH];Y52W[VH];S103F[VH];Y31W[VL];N99H[VL]) (antibody, V domains shown)
VH: B3 VH with I50M, Y52W, S103F
VL: B3 VL with Y31W, R32S, K35E, N99H

- binding result [1]: binds
- Kd [2]: 63 nM
B5: CBTAU-28.1 (I50M[VH];Y52W[VH];S103F[VH];S32R[VL];E35K[VL]) (antibody, V domains shown)
VH: B3 VH with I50M, Y52W, S103F
VL: B3 VL

The remaining lines, values behind:

B1: CBTAU-28.1 (I50M[VH];Y52W[VH];S103W[VH];S32R[VL];E35K[VL]) (antibody, V domains shown)
VH: B3 VH with I50M, Y52W, S103W
VL: B3 VL
- binding result [1]: binds
- Kd [2]: 67 nM

B2: CBTAU-28.1 (I50M[VH];Y52W[VH];S103W[VH];Y31W[VL];N99H[VL]) (antibody, V domains shown)
VH: B3 VH with I50M, Y52W, S103W
VL: B3 VL with Y31W, R32S, K35E, N99H
- binding result [1]: binds
- Kd [2]: 57 nM
